The assay deals with T1, biotinylated CD59 (Homo sapiens, UniProt P13987).
T1 construct: Recombinant soluble human CD59 with an additional C-terminal cysteine residue
T1 sequence (P13987 26-102 limits assumed): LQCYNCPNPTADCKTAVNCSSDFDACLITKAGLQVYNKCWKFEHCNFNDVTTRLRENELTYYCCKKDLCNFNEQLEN
The experiment in a line: mRNA-display cyclic peptide screen against CD59-biotin, NGS abundance after 6th selection round. As to conditions: for Counts (raw counts for peptide sequence), Seq I: NGS sample Seq I; for Counts (raw counts for peptide sequence), Seq I / Counts (raw counts for peptide sequence), Seq II / Counts Seq I / Counts Seq II: sheet R6 (6th selection round); for Counts (raw counts for peptide sequence), Seq II: NGS sample Seq II; for Percentage of the pool, averaged across the two sequencing samples: average of Seq I and Seq II; for Percentage of the pool, averaged across the two sequencing samples / Percentage of the pool, Seq I / Percentage of the pool, Seq II / Percentage Seq I / Percentage Seq II / Percentage Average: sheet R6; for Percentage of the pool, Seq I: counts normalised by total counts of NGS sample Seq I; for Percentage of the pool, Seq II: counts normalised by total counts of NGS sample Seq II; for Percentage Seq I: counts normalised by total counts of sample Seq I; for Percentage Seq I / Percentage Seq II: percentage of the pool; for Percentage Seq II: counts normalised by total counts of sample Seq II; for Percentage Average: percentage of the pool averaged across the two sequencing samples; for Counts Seq I / Counts Seq II: raw NGS counts of peptide sequence; for Counts Seq I: sequencing sample Seq I; for Counts Seq II: sequencing sample Seq II. An excerpt: To discover novel non‐protein CD59 ligands, we screened a library of 10^12 cyclic peptides against CD59 using mRNA‐display (Figure 2a).^[ [23], [24], [25], [26], [27], [28], [29] ^] Briefly, an mRNA library was designed in which the start codon was reprogrammed from Met to N‐chloroacetyl‐D‐Tyr (ClAc‐D‐Tyr), followed by 10–12 randomly encoded natural amino acids, a Cys residue, a (GlySer)3 linker, and a stop codon. […] The total library diversity was 1.51 × 10^13 molecules, comprising 5.02 × 10^12 molecules of each macrocycle size, covering a subset of the maximum theoretical diversity of this library design. Following in vitro translation, ClAc‐D‐Tyr spontaneously reacts with either the C‐terminal Cys or a Cys in the random region, yielding macrocyclic thioether peptides. Hits from the library were identified through iterative enrichment and amplification against biotinylated CD59, then immobilized on streptavidin beads. Fifteen hit sequences (CP‐01 to CP‐15), enriched with abundance >1% relative to the total pool of recovered binders after the 6th round of selection, were synthesized by solid phase peptide synthesis (SPPS), without the (Gly‐Ser)3 linker.
Figure 2 Discovery of macrocyclic peptide ligands with nanomolar CD59 affinity using mRNA display. a) The selection process. PCR = polymerase chain reaction, SPPS = solid phase peptide synthesis. b) Table showing details of the peptides with nanomolar affinity for CD59 as well as the binding affinity of the lead inhibitor of CD59, rILYd4. K D values are presented as the average of three technical replicates ± SEM. Structures of all peptides and SPR sensograms are presented in Figures S1 and S2. *indicates the presented sequences are the variable regions of these cyclic peptides; each is flanked by an N‐terminal Ac‐D‐Tyr cyclized to a C‐terminal Cys. R6 abundance (%) is defined as (the given number of NGS reads for a given sequence/the total number of reads of unique sequences observed in NGS)*100 following the 6th selection round. c) Representative sensogram of the interaction between CP‐06 with immobilized CD59 by SPR analysis. Inset showing the equilibrium binding curve of CP‐06 to CD‐59. Below in the box are the association and dissociation rate constants of CP‐06. Concentrations are plotted in descending order from 800‐3.1 nM in line with their position on the legend. […] (nM)'; the box with Kon/Koff has no label of its own / ILYd4: the label may be cut off at the left edge (possibly 'rILYd4') / CP-02, KD: 15.3 ± 0.2, small print, 3 or 8 uncertain / CP-03, KD: 23.4 ± 0.7, small print / CP-06, KD: 11.3 ± 0.0, small print, 3 or 8 uncertain / CP-13, KD: 10.8 ± 0.7, small print, 8 or 6 uncertain / ILYd4, KD: 48.3 ± 1.1, small print, 8 and 3 uncertain
The mRNA-display cyclic peptide screen was performed against CD59-biotin by T.E.M: DNA templates for transcription were generated by PCR in a similar manner to that previously described.^2 RNA oligonucleotides were transcribed from the DNA templates using T7 RNA polymerase and purified by phenol/chloroform extraction followed by ethanol precipitation. Oligonucleotide concentrations were determined spectroscopically by absorbance at 260 nm. In the first selection round a 1:1:1 molar ratio of NNK10/NNK11/NNK12 was used. The procedure for selection rounds 2-6 is described below; round 1 was conducted at twice the scale.
RNA encoding for the peptide library ligated to a puromycin-modified oligonucleotide was […] (final [RNA] = 2.5 µM) using a customised PURE express kit (lacking release factor 1 and methionine, supplemented with […] initiator tRNA acylated with N-chloroacetyl-d-tyrosine prepared as previously described)^3 in a final volume of 5.6 µL for 1 hour at 37 °C.
This mixture was incubated at 42 °C for 1 hour before being diluted to 500 µL with PBS (10 mM Na-PO4 pH 7.4, 2.7 mM KCl, 137 mM NaCl) and 0.5 µL taken for subsequent use in qPCR. […]

On to IARGDWNHQFF, for which the “Counts (raw counts for peptide sequence), Seq I” value was 56; the “Counts (raw counts for peptide sequence), Seq II” value is 3; the “Percentage of the pool, averaged across the two sequencing samples” value was 0.010%; the “Percentage of the pool, Seq I” value was 0.013%. Further, the “Percentage of the pool, Seq II” value stood at 0.007%.
Take FITGNRDHTRG: the “Percentage Seq I” value came out at 0.018%, the “Percentage Seq II” value is 0.026%, the “Percentage Average” value is 0.022% and the “Counts Seq I” value was found to be 78. Further, the “Counts Seq II” value is listed as 11.
Consider CFQNRMAYGDI, for which the “Counts (raw counts for peptide sequence), Seq I” value came to 34; the “Counts (raw counts for peptide sequence), Seq II” value is 7; the “Percentage of the pool, averaged across the two sequencing samples” value is 0.012%; the “Percentage of the pool, Seq I” value is reported as 0.008%. In addition, the “Percentage of the pool, Seq II” value is listed as 0.016%.
On to QWNRWYGIDER, for which the “Percentage Seq I” value was 0.021%, the “Percentage Seq II” value amounted to 0.023%, the “Percentage Average” value was determined as 0.022% and the “Counts Seq I” value was found to be 94. The “Counts Seq II” value is listed as 10.
The matching figures for CFRFRLNATSS: 0.075%, 0.060%, 0.068%, 329 and 26.
The matching figures for CFARRLSASLGT: 0.033%, 0.021%, 0.027%, 145 and 9.
As for HVFGNKSFTRG, the “Counts (raw counts for peptide sequence), Seq I” value is 63; the “Counts (raw counts for peptide sequence), Seq II” value is given as 9; the “Percentage of the pool, averaged across the two sequencing samples” value is 0.018%; the “Percentage of the pool, Seq I” value came out at 0.014%. Besides, the “Percentage of the pool, Seq II” value was determined as 0.021%.
As to SSWAQLPCKR, the “Percentage Seq I” value was 0.039%, the “Percentage Seq II” value was 0.030%, the “Percentage Average” value is recorded as 0.035% and the “Counts Seq I” value is 170. In addition, the “Counts Seq II” value turned out to be 13.
Consider CFARRLSSSHSL, for which the “Percentage Seq I” value is 0.161%, the “Percentage Seq II” value amounted to 0.155%, the “Percentage Average” value came out at 0.158% and the “Counts Seq I” value is reported as 705. Moreover, the “Counts Seq II” value was determined as 67.
As for SSFREYNHLPCT, the “Percentage Seq I” value came out at 0.598%, the “Percentage Seq II” value worked out at 0.694%, the “Percentage Average” value was 0.646% and the “Counts Seq I” value is reported as 2617. Moreover, the “Counts Seq II” value is reported as 299.
Regarding FIRGNSTSVLFAAAAAAARTGGG, the “Counts (raw counts for peptide sequence), Seq I” value is reported as 40; the “Counts (raw counts for peptide sequence), Seq II” value is on record as 7; the “Percentage of the pool, averaged across the two sequencing samples” value is on record as 0.013%; the “Percentage of the pool, Seq I” value worked out at 0.009%. Besides, the “Percentage of the pool, Seq II” value is recorded as 0.016%.
Take IARGDRNHQFF: the “Counts (raw counts for peptide sequence), Seq I” value came out at 42; the “Counts (raw counts for peptide sequence), Seq II” value was found to be 6; the “Percentage of the pool, averaged across the two sequencing samples” value is given as 0.012%; the “Percentage of the pool, Seq I” value is 0.010%. Besides, the “Percentage of the pool, Seq II” value stood at 0.014%.
Consider WRDRFDQCVI, for which the “Counts (raw counts for peptide sequence), Seq I” value came to 37; the “Counts (raw counts for peptide sequence), Seq II” value was determined as 5; the “Percentage of the pool, averaged across the two sequencing samples” value worked out at 0.010%; the “Percentage of the pool, Seq I” value came out at 0.00846%. The “Percentage of the pool, Seq II” value was 0.012%.
In the case of FVLGNRHTIVG, the “Counts (raw counts for peptide sequence), Seq I” value stood at 57; the “Counts (raw counts for peptide sequence), Seq II” value is reported as 6; the “Percentage of the pool, averaged across the two sequencing samples” value worked out at 0.013%; the “Percentage of the pool, Seq I” value turned out to be 0.013%. The “Percentage of the pool, Seq II” value is listed as 0.014%.
ASWLPSPCKFN: the “Percentage Seq I” value is listed as 0.029%, the “Percentage Seq II” value was found to be 0.037%, the “Percentage Average” value is recorded as 0.033% and the “Counts Seq I” value was found to be 128. The “Counts Seq II” value came to 16.
Take LLGSSSYVKFWY: the “Percentage Seq I” value was determined as 0.253%, the “Percentage Seq II” value is recorded as 0.265%, the “Percentage Average” value came to 0.259% and the “Counts Seq I” value came out at 1105. In addition, the “Counts Seq II” value was found to be 114.
Take DSRNQCHTWKT: the “Counts (raw counts for peptide sequence), Seq I” value is 87; the “Counts (raw counts for peptide sequence), Seq II” value came to 6; the “Percentage of the pool, averaged across the two sequencing samples” value came out at 0.017%; the “Percentage of the pool, Seq I” value turned out to be 0.020%. Besides, the “Percentage of the pool, Seq II” value worked out at 0.014%.
On to FVMGNRDHTRG, for which the “Percentage Seq I” value is listed as 0.017%, the “Percentage Seq II” value was determined as 0.023%, the “Percentage Average” value came to 0.020% and the “Counts Seq I” value worked out at 76. In addition, the “Counts Seq II” value was found to be 10.
With YVFGNRSFARG, the “Counts (raw counts for peptide sequence), Seq I” value was 32; the “Counts (raw counts for peptide sequence), Seq II” value is 7; the “Percentage of the pool, averaged across the two sequencing samples” value is 0.012%; the “Percentage of the pool, Seq I” value is listed as 0.007%. Further, the “Percentage of the pool, Seq II” value was 0.016%.
On to WRDRLDQCVL, for which the “Percentage Seq I” value worked out at 0.019%, the “Percentage Seq II” value is 0.021%, the “Percentage Average” value came out at 0.020% and the “Counts Seq I” value is 85. Also, the “Counts Seq II” value came out at 9.
For AVHGSSFYVWG, the “Percentage Seq I” value was determined as 0.037%, the “Percentage Seq II” value was determined as 0.039%, the “Percentage Average” value was found to be 0.038% and the “Counts Seq I” value was determined as 164. Moreover, the “Counts Seq II” value stood at 17.
Regarding CFAGRLTEGV, the “Percentage Seq I” value is listed as 0.035%, the “Percentage Seq II” value is 0.044%, the “Percentage Average” value is listed as 0.040% and the “Counts Seq I” value worked out at 155. Besides, the “Counts Seq II” value was found to be 19.
In the case of CYGGQTFIYAWS, the “Percentage Seq I” value was determined as 0.026%, the “Percentage Seq II” value is on record as 0.030%, the “Percentage Average” value worked out at 0.028% and the “Counts Seq I” value is 114. The “Counts Seq II” value was 13.
RIGTSTCPFKFS: the “Percentage Seq I” value turned out to be 0.024%, the “Percentage Seq II” value is on record as 0.023%, the “Percentage Average” value was 0.024% and the “Counts Seq I” value was found to be 106. The “Counts Seq II” value came out at 10.
For the sequence CFSRRTSVPNTT, the “Percentage Seq I” value was 0.209%, the “Percentage Seq II” value is listed as 0.190%, the “Percentage Average” value came to 0.200% and the “Counts Seq I” value is on record as 914. In addition, the “Counts Seq II” value is reported as 82.
